{
  "source": "patent US20060019335A1",
  "about": "“Compositions and methods to promote c-IAP autodegradation” (priority 2004, published 2006)",
  "key": {"XIAP": {"molecular_target": "XIAP (Homo sapiens, UniProt P98170)", "sequence (P98170 whole entry)": "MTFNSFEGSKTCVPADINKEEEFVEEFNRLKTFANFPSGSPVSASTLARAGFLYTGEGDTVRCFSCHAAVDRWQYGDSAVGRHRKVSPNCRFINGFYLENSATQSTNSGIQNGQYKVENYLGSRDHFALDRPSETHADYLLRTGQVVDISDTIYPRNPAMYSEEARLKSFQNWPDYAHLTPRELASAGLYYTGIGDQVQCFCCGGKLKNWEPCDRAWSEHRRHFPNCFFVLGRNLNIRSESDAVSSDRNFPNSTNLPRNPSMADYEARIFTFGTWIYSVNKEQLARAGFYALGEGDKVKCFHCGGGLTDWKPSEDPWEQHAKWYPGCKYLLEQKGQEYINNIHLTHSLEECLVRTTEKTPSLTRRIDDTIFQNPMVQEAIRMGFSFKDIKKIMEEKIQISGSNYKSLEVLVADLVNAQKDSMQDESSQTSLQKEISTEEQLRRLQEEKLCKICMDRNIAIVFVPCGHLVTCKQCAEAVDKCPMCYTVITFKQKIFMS", "assay": "Co-transfection of HeLa cells with XIAP and Smac plasmids, Western blot", "format": "cell-based", "parameters": "expressed in transfected cells; host or cells: HeLa", "conditions": "for XIAP ubiquitylation: co-transfection", "description": "(§1) Transfection of cultured Cells—HeLa cells were grown in DMEM supplemented with 10% fetal bovine serum. Cells were seeded onto 6-well plates the day before transfection and transfected at 70% confluence by using Lipofectin combined with Plus reagent (Invitrogen) according to the manufacture's protocols. The IAP expression plasmids (3 μg each for c-IAP1, c-IAP2 and XIAP, and 250 ng each for Livin αand Livin β) together with 2.5 μg of Smac expression plasmids or pcDNA3.1(−) blank plasmid were used for single-well transfection in the absence of antibiotics. The cells were harvested 12 hours after the transfection and lysed with 0.5% CHAPS in 20 mM HEPES (pH 7.4), 10 mM KCl, 1 mM MgCl2 and 1 mM DTT. The lysates were centrifuged and the protein concentrations of the supernatants were quantified by the modified Bradford method (36).\n(§2) Western Blot analysis—Proteins were resolved by SDS-PAGE and transferred to nitrocellulose filters. The filters were blocked with 5% milk and probed with antibodies as indicated. The signals were visualized with the enhanced chemiluminescence method.\nTo investigate the effect of Smac polypeptide on IAP protein levels, HeLa cells were transfected with the expression vectors for Smac and various IAPs. Briefly, HeLa cells were either transfected with IAP alone (Lane 2, 4 and 6), or together with Smac polypeptide (Lane 3, 5 and 7), or with Smac polypeptide alone (Lane 1). Equal amounts of cell lysates (7 μg) were immunoblotted with either the HRP-conjugated anti-FLAG antibody (shown in the top panel) in order to detect N-terminal 3×FLAG tagged IAPs, or with the anti-c-Myc antibody (bottom panel) to detect C-terminal c-Myc tagged Smac. The ubiquitin fusion technique was used to secure the production of mature Smac protein with the expected N-terminal AVPI motif (6, 37).\nIt is known that XIAP is ubiquitylated by its own E3 activity when expressed in HEK 293T cells and that this auto-ubiquitylation and subsequent degradation is stimulated by Reaper (26). In the current study, XIAP transiently expressed in HeLa cells was ubiquitylated as well; however, mono-ubiquitylation rather than poly-ubiquitylation of XIAP was the major product (see FIG. 3A). Briefly, XIAP WT or H467A mutant plasmids together with either Smac WT or ΔA, or with pcDNA3.1(−) blank plasmid, were co-transfected into the HeLa cells. As controls, HeLa cells were also transfected with either Smac WT or ΔA plasmids together with the blank p3×FLAG-CMV-7 plasmid. The transfected cells were cultivated either in the absence (see lanes 1-7 of FIG. 3A) or in the presence (see lanes 8-14 of FIG. 3A) of MG132. Equal amounts of soluble proteins (7 μg) from the transfected cells were immunoblotted with either the HRP-conjugated anti-FLAG antibody (see top panel of FIG. 3A) to detect N-terminal 3×FLAG tagged IAPs, or with the anti-c-Myc antibody (see middle panel of FIG. 3A) to detect Smac. The anti-Actin immunoblotting results were to show equal protein loading (see bottom panel of FIG. 3A)."}, "Livin α": {"molecular_target": "T1, Livin α (Homo sapiens, UniProt Q96CA5)", "T1 construct": "expressed in transfected cells; host or cells: HeLa", "T1 sequence (Q96CA5 1-298)": "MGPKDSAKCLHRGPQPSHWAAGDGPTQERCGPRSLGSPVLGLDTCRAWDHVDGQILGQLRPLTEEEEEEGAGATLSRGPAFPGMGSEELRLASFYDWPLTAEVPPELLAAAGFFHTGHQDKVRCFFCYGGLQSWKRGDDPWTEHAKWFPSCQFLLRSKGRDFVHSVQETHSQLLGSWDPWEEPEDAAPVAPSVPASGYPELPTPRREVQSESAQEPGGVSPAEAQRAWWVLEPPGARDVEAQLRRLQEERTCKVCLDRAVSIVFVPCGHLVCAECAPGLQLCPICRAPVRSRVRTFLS", "assay": "Co-transfection of HeLa cells with Livin α and Smac plasmids, Western blot", "format": "cell-based", "conditions": "for auto-ubiquitylation of Livin: FIG. 3B", "description": "as §1, §2\nIn the current study, Livin was also transiently expressed in HeLa cells to determine the ubiquitylation activity (see FIG. 3B). Briefly, Livin α WT or H269A mutant plasmids together with Smac WT or Smac ΔA mutant, or with pcDNA3.1(−) blank plasmid, were co-transfected into HeLa cells. As controls, HeLa cells were also transfected with either Smac WT or ΔA plasmids together with the blank p3×FLAG-CMV-7 plasmid. The transfected cells were cultivated either in the absence (see lanes 1-7 of FIG. 3B) or in the presence (see lane 8-14 of FIG. 3B) of MG132. Equal amounts of soluble proteins (7 μg) from the transfected cells were immunoblotted with either the HRP-conjugated anti-FLAG antibody (see top panel of FIG. 3B) to detect N-terminal 3×FLAG tagged IAPs, or with the anti-c-Myc antibody (see middle panel of FIG. 3B) to detect Smac. The anti-Actin immunoblotting results were to show equal protein loading (see bottom panel of FIG. 3B). […]"}, "[1]": {"test_system": "IAP proteins (GST fusion form)", "assay": "GST pull-down of purified IAP proteins with Smac, silver staining", "format": "binding, human", "conditions": "equimolar concentrations, 2 hours at 4° C., FIG. 4", "description": "The ability of various IAP proteins to bind Smac WT polypeptide and Smac ΔA mutant polypeptide was also examined. The results are depicted in FIG. 4. Briefly, purified IAP proteins (GST fusion form; as indicated in FIG. 4) were incubated with equimolar concentrations of either Smac or Smac ΔA in a buffer containing 20 mM phosphate (pH 7.4), 200 mM NaCl and 0.05% Tween 20 for 2 hours at 4° C. The GST-fused IAP proteins were pulled down by Glutathione Sepharose beads. The resulting […] were subjected to SDS-PAGE followed by silver staining. Lane M of FIG. 4 is the protein marker. […] The reason for this IBM-independent acceleration on XIAP and Livin ubiquitylation is unknown."}},
  "data": [
    {"molecule": "Smac ΔA: Smac mutant lacking the initial Ala (Ala deletion mutant polypeptide), used as negative control (protein, UniProt Q9NR28 22-239, looked up, variant A1*) Diablo IAP-binding …: LCVPVVANFKKRCFSELIRPWHKTVTIGFGVTLCVPIAQKSEPHSLSSEALMRRAVSLVTDSTSTFLSQTTYALIEAITEYTKAVYTLTSLYRQYTSLLGKMNSEEEDEVWQVIIGARAEMTSKHQEYLKLETTWMTAVGLSEMAAEAAYQTGADQASITARNHIQLVKLQVEEVHQLSRKAETKLAEAQIEELRQKTQEEGEERAESEQEAYLRED", "values": [
      {"measurement": "XIAP ubiquitylation", "setting": "XIAP; FIG. 3A", "result": "stimulated the auto-ubiquitylation of XIAP and Livin"},
      {"measurement": "auto-ubiquitylation of Livin", "setting": "Livin α", "result": "stimulated the auto-ubiquitylation of XIAP and Livin"},
      {"measurement": "binding to IAP proteins", "setting": "[1]", "result": "failure to bind"},
      {"measurement": "binding to IAP proteins", "setting": "[1]; listed as Smac mutant lacking the initial Ala residue", "result": "did not bind IAP proteins"}
    ]},
    {"molecule": "Smac: wild type (WT) Smac polypeptide from Homo sapiens, SEQ ID NO 1, 239 amino acids; second mitochondria-derived activator of caspase (protein, listed as Homo sapiens) MAALKSWLSRSVTSFFRYRQCLCVPVVANFKKRCFSELIRPWHKTVTIGFGVTLCAVPIAQKSEPHSLSSEALMRRAVSLVTDSTSTFLSQTTYALIEAITEYTKAVYTLTSLYRQYTSLLGKMNSEEEDEVWQVIIGARAEMTSKHQEYLKLETTWMTAVGLSEMAAEAAYQTGADQASITARNHIQLVKLQVEEVHQLSRKAETKLAEAQIEELRQKTQEEGEERAESEQEAYLRED", "values": [
      {"measurement": "level of XIAP", "setting": "XIAP; co-expression, absence of MG132", "result": "negligible effect"},
      {"measurement": "overall amount of XIAP", "setting": "XIAP; co-transfected Smac, FIG. 3A", "result": "not significantly affected"},
      {"measurement": "XIAP ubiquitylation", "setting": "XIAP; FIG. 3A", "result": "still promoted XIAP ubiquitylation"},
      {"measurement": "protein level of XIAP", "setting": "XIAP; mature Smac co-expressed, FIG. 1", "result": "unaffected"},
      {"measurement": "auto-ubiquitylation of Livin", "setting": "Livin α", "result": "effectively stimulates auto-ubiquitylation of Livin α"},
      {"measurement": "degradation of Livin α", "setting": "Livin α; absence of MG132, FIG. 3B", "result": "slightly promoted the degradation of Livin α"},
      {"measurement": "binding to IAP proteins", "setting": "[1]", "result": "bind"}
    ]}
  ]
}
